The source of these data is paper PMC11497598.

Experiment in all cases: analytical SEC
Common to all, as to details: cell culture supernatant of Expi293F cells; parent: est. 72; read off a plot

Assay [1] deals with B/Iowa/06/2017 HA HA1 152W.
In assay [2] the target is B/Iowa/06/2017 HA HA1 213A.
The target in assay [3] is B/Iowa/06/2017 HA HA1 220Q.
Assay [4] has as its target B/Iowa/06/2017 HA HA1 220T.
The target in assay [5] is B/Iowa/06/2017 HA HA1 314M.
The target of assay [6] is B/Iowa/06/2017 HA HA1 H311M.
For assay [7], the target named is B/Iowa/06/2017 HA HA1 K209R.
For assay [8], the target named is B/Iowa/06/2017 HA HA1 K209Y.
Assay [9] has as its target B/Iowa/06/2017 HA HA1 T211L.
Assay [10] concerns the target B/Iowa/06/2017 HA HA1 T218I.
The target in assay [11] is B/Iowa/06/2017 HA HA1 T218V.
Assay [12] has as its target B/Iowa/06/2017 HA HA1 V217K.
The target in assay [13] is B/Iowa/06/2017 HA HA1 V217W.
In assay [14] the target is B/Iowa/06/2017 HA HA2 11P.
Assay [15] has as its target B/Iowa/06/2017 HA HA2 67A.
Assay [16] concerns the target B/Iowa/06/2017 HA HA2 91V.
For assay [17], the target named is B/Iowa/06/2017 HA HA2 111L.
Assay [18] has as its target B/Iowa/06/2017 HA HA2 116R.
For assay [19], the target named is B/Iowa/06/2017 HA HA2 116W.
For assay [20], the target named is B/Iowa/06/2017 HA HA2 D71P.
In assay [21] the target is B/Iowa/06/2017 HA HA2 E113L.
Assay [22] concerns the target B/Iowa/06/2017 HA HA2 E113N.
Assay [23] has as its target B/Iowa/06/2017 HA HA2 E113Q.
For assay [24], the target named is B/Iowa/06/2017 HA HA2 E113W.
In assay [25] the target is B/Iowa/06/2017 HA HA2 H22F.
Assay [26] deals with B/Iowa/06/2017 HA HA2 H22W.
The target in assay [27] is B/Iowa/06/2017 HA HA2 H22Y.
The target in assay [28] is B/Iowa/06/2017 HA HA2 H114F.
The target in assay [29] is B/Iowa/06/2017 HA HA2 H114I.
The target of assay [30] is B/Iowa/06/2017 HA HA2 H114N.
Assay [31] concerns the target B/Iowa/06/2017 HA HA2 H114W.
The target in assay [32] is B/Iowa/06/2017 HA HA2 Q64F.
Assay [33] deals with B/Iowa/06/2017 HA HA2 Q64P.
Assay [34] concerns the target B/Iowa/06/2017 HA HA2 Q64Y.
The target in assay [35] is B/Iowa/06/2017 HA HA2 S110R.

As for “wild-type soluble hemagglutinin (HA) of influenza B/Iowa/06/2017 HA1:152W”, in assay [1], the other: trimer fraction is 81%.

On to “wild-type soluble hemagglutinin (HA) of influenza B/Iowa/06/2017 HA1:213A”, for which the other: trimer fraction in [2] amounted to 82%.

In the case of “wild-type soluble hemagglutinin (HA) of influenza B/Iowa/06/2017 HA1:220Q”, the other: trimer fraction in [3] amounted to 62%.

“wild-type soluble hemagglutinin (HA) of influenza B/Iowa/06/2017 HA1:220T”: the other: trimer fraction in assay [4] came to 79%.

For “wild-type soluble hemagglutinin (HA) of influenza B/Iowa/06/2017 HA1:314M”, the other: trimer fraction in assay [5] stood at 49%.

For the substance “wild-type soluble hemagglutinin (HA) of influenza B/Iowa/06/2017 HA1:H311M”, the other: trimer fraction in assay [6] came out at 68%.

For the substance “wild-type soluble hemagglutinin (HA) of influenza B/Iowa/06/2017 HA1:K209R”, the other: trimer fraction in assay [7] turned out to be 79%.

On to “wild-type soluble hemagglutinin (HA) of influenza B/Iowa/06/2017 HA1:K209Y”, for which, in assay [8], the other: trimer fraction was 92%.

On to “wild-type soluble hemagglutinin (HA) of influenza B/Iowa/06/2017 HA1:T211L”, for which, in [9], the other: trimer fraction stood at 95%.

On to “wild-type soluble hemagglutinin (HA) of influenza B/Iowa/06/2017 HA1:T218I”, for which, in [10], the other: trimer fraction worked out at 82%.

Consider “wild-type soluble hemagglutinin (HA) of influenza B/Iowa/06/2017 HA1:T218V”, for which the other: trimer fraction in assay [11] stood at 69%.

For the substance “wild-type soluble hemagglutinin (HA) of influenza B/Iowa/06/2017 HA1:V217K”, the other: trimer fraction in assay [12] stood at 91%.

For “wild-type soluble hemagglutinin (HA) of influenza B/Iowa/06/2017 HA1:V217W”, in [13], the other: trimer fraction worked out at 96%.

For the substance “wild-type soluble hemagglutinin (HA) of influenza B/Iowa/06/2017 HA2:11P”, the other: trimer fraction in assay [14] is 76%.

As to “wild-type soluble hemagglutinin (HA) of influenza B/Iowa/06/2017 HA2:67A”, in assay [15], the other: trimer fraction was determined as 64%.

In the case of “wild-type soluble hemagglutinin (HA) of influenza B/Iowa/06/2017 HA2:91V”, the other: trimer fraction in [16] is 77%.

As to “wild-type soluble hemagglutinin (HA) of influenza B/Iowa/06/2017 HA2:111L”, the other: trimer fraction in assay [17] is 55%.

“wild-type soluble hemagglutinin (HA) of influenza B/Iowa/06/2017 HA2:116R”: in assay [18], the other: trimer fraction turned out to be 86%.

“wild-type soluble hemagglutinin (HA) of influenza B/Iowa/06/2017 HA2:116W”: the other: trimer fraction in [19] came to 90%.

For “wild-type soluble hemagglutinin (HA) of influenza B/Iowa/06/2017 HA2:D71P”, the other: trimer fraction in assay [20] worked out at 88%.

As to “wild-type soluble hemagglutinin (HA) of influenza B/Iowa/06/2017 HA2:E113L”, the other: trimer fraction in assay [21] was 97%.

In the case of “wild-type soluble hemagglutinin (HA) of influenza B/Iowa/06/2017 HA2:E113N”, in [22], the other: trimer fraction came out at 96%.

Consider “wild-type soluble hemagglutinin (HA) of influenza B/Iowa/06/2017 HA2:E113Q”, for which the other: trimer fraction in [23] is 97%.

In the case of “wild-type soluble hemagglutinin (HA) of influenza B/Iowa/06/2017 HA2:E113W”, the other: trimer fraction in [24] came to 100%.

Take “wild-type soluble hemagglutinin (HA) of influenza B/Iowa/06/2017 HA2:H22F”: the other: trimer fraction in [25] worked out at 91%.

In the case of “wild-type soluble hemagglutinin (HA) of influenza B/Iowa/06/2017 HA2:H22W”, the other: trimer fraction in assay [26] stood at 81%.

For “wild-type soluble hemagglutinin (HA) of influenza B/Iowa/06/2017 HA2:H22Y”, the other: trimer fraction in assay [27] worked out at 85%.

Consider “wild-type soluble hemagglutinin (HA) of influenza B/Iowa/06/2017 HA2:H114F”, for which, in assay [28], the other: trimer fraction worked out at 75%.

As to “wild-type soluble hemagglutinin (HA) of influenza B/Iowa/06/2017 HA2:H114I”, the other: trimer fraction in assay [29] came to 55%.

“wild-type soluble hemagglutinin (HA) of influenza B/Iowa/06/2017 HA2:H114N”: in assay [30], the other: trimer fraction is 57%.

For the substance “wild-type soluble hemagglutinin (HA) of influenza B/Iowa/06/2017 HA2:H114W”, in [31], the other: trimer fraction came out at 43%.

For the substance “wild-type soluble hemagglutinin (HA) of influenza B/Iowa/06/2017 HA2:Q64F”, the other: trimer fraction in [32] is 96%.

In the case of “wild-type soluble hemagglutinin (HA) of influenza B/Iowa/06/2017 HA2:Q64P”, the other: trimer fraction in [33] worked out at 65%.

For the substance “wild-type soluble hemagglutinin (HA) of influenza B/Iowa/06/2017 HA2:Q64Y”, the other: trimer fraction in assay [34] worked out at 98%.

With “wild-type soluble hemagglutinin (HA) of influenza B/Iowa/06/2017 HA2:S110R”, the other: trimer fraction in assay [35] amounted to 86%.
